In paper doi:10.1101/641969v1:

Experiments:
purified protein [1] = substrate: CC(=O)C(=O)O; experiment: purified protein; assay type: biochemical, Staphylococcus aureus; conditions: 0.2 mM NADPH, 0.2 mM xNA, pH 7, 28 °C
purified protein [2] = substrate: O=C(O)CCC(=O)C(=O)O; experiment: purified protein; conditions: 0.2 mM NADH, 0.2 mM yNA, pH 8, 28 °C

Row | Protein | Km (purified protein [1]) | kcat (purified protein [1]) | Km (purified protein [2]) | kcat (purified protein [2])
1 | SaCntM (Staphylococcus aureus subsp. aureus Mu50) (protein) MSKLLMIGTGPVAIQLANICYLKSDYEIDMVGRASTSEKSKRLYQAYKKEKQFEVKIQNEAHQHLEGKFEINRLYKDVKNVKGEYETVVMACTADAYYDTLQQLSLETLQSVKHVILISPTFGSQMIVEQFMSKFSQDIEVISFSTYLGDTRIVDKEAPNHVLTTGVKKKLYMGSTHSNSTMCQRISALAEQLKIQLEVVESPLHAETRNSSLYVHPPLFMNDFSLKAIFEGTDVPVYVYKLFPEGPITMTLIREMRLMWKEMMAILQAFRVPSVNLLQFMVKENYPVRPETLDEGDIEHFEILPDILQEYLLYVRYTAILIDPFSQPDENGHYFDFSAVPFKQVYKNEQDVVQIPRMPSEDYYRTAMIQHIGKMLGIKTPMIDQFLTRYEASCQAYKDMHQDQQLSSQFNTNLFEGDKALVTKFLEINRTLS | 51 ± 6 µM | 1.00 ± 0.02 s⁻¹ |  | 
2 | PaCntM (Pseudomonas aeruginosa PAO1) (protein) MNAADESLGNVLLVGLGAVAIQVALDLRRHGAGRLGALNHPGRRSQRIAEALARGACLQLEGQGQHRWLSGNAALDVFHQDPAELRDDWQTLVLCVPADSYLDVVRGLPWERLGGVRTLLLVSAFIGANLLVRSALPAGCQATVLSLSSYYAATKVIDETQPLRALTKAVKRRVYLGSSRPDCPARETWRRVLAGSGVEVVPLATPEAAEGRNVTTYVHSPFFLGEFALARILSEQGPPGFMYKLYPEGPITPGAIGAMRRLWCELSELLRRMGAEPLNLLRFLNDDNYPVHETMLPRASIDGFAEAGAERQEYLLFVRYAALLVDPFSPADEQGRHFDFSAVPFRRVSRDEDGLWRLPRVPLEDYRKLALIVALAAHFDLAMPQARSLLASYENAVSRFIDCQGASQCHPSLYPIDSRPAADAIYRQWCSTC |  |  | 133 ± 39 µM | 0.27 ± 0.02 s⁻¹
